Experimental data as given in patent US6803501B2 (Monsanto Technology, LLC, priority 2000, dated 2004).

How the values were obtained:
[1] = target: T1, P. hybrida glypS (wt) EPSPS (Petunia hybrida, glyphosate sensitive, wild type) (Petunia hybrida, UniProt P11043); assay: kinetic characterization of EPSP synthase (Table 4); assay type: biochemical; conditions: read-out: apparent Km for PEP; saturating shikimate-3-phosphate
T1 sequence (P11043 73-516): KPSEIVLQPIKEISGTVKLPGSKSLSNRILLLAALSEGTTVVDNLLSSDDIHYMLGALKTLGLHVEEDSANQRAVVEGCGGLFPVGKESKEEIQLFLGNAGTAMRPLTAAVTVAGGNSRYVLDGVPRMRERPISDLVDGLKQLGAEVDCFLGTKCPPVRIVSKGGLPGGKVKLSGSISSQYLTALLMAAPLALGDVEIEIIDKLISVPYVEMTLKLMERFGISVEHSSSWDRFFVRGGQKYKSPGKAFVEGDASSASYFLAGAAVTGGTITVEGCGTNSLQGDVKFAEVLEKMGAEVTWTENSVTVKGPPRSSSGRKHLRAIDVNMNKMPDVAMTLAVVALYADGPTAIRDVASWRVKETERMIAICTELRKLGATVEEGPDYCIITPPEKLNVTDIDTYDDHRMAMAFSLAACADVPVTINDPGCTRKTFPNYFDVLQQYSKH
Experimental: Final sample volumes are approximately 0.5 ml.

[2] = substrate: C=C(OP(=O)(O)O)C(=O)O; assay: as above; assay type: biochemical, Petunia hybrida; conditions: other: saturating shikimate-3-phosphate; 25.0 °C
Experimental: Preparation of extracts and radiometric EPSP synthase assays are performed using methods adapted from published procedures (Padgette et al., J. Biol. Chem. 266:22364-22369 (1991). Crown regions are dissected from whole plants, pulverized under liquid nitrogen with a mortar and pestle, then stored at −80° C. prior to extraction. Homogenates are prepared from 0.5 g tissue per sample in 25 ml extraction buffer (100 mM TrisCl, 10% glycerol, 1 mM EDTA, 1 mM benzamidine, 1 mM dithiothreitol, 1 mM 4-(2-aminoethyl)-benzenesulfonyl floride HCl, 0.1 mM leupeptin, pH 7.4) at 4° C. using a model PT3000 Polytron homogenizer (Brinkman Instuments Inc., Westbury, N.Y.). Debris is removed by 0.2 μm filtration, then the resulting supernatant is concentrated and desalted using an Ultrafree-15 centrifugal filtration unit (cat.#UFV2-BGC-10, Millipore Corp., Bedford, Mass.). […] Protein concentrations are determined spectrophotometrically using the Bio-Rad protein assay reagent (cat.#500-0006, Bio-Rad Laboratories, Hercules, Calif.). EPSPS specific activities are determined by assaying 10 μl extract at 25° C. for 5-15 min. […] Reactions are quenched with the addition of 50 μl 9:1 ethanol: 0.1 M acetic acid. […]

[3] = substrate: C=C(OP(=O)(O)O)C(=O)O; assay: cells, lysate or membranes named; conditions: other: saturating shikimate-3-phosphate; 25.0 °C
[4] = substrate: C=C(OP(=O)(O)O)C(=O)O; assay: purified protein, by the assay type; conditions: other: saturating shikimate-3-phosphate; 25.0 °C

Question: With C=C(OP(=O)(O)O)C(=O)O [PEP, phosphoenolpyruvate] as the molecule, how does the Km [1] read?
Answer: 5 µM

B1: P. hybrida EPSPS variant glypR (Pro-Ser) (Petunia x hybrida; P178S) (protein)
chain: KPSEIVLQPIKEISGTVKLPGSKSLSNRILLLAALSEGTTVVDNLLSSDDIHYMLGALKTLGLHVEEDSANQRAVVEGCGGLFPVGKESKEEIQLFLGNAGTAMRSLTAAVTVAGGNSRYVLDGVPRMRERPISDLVDGLKQLGAEVDCFLGTKCPPVRIVSKGGLPGGKVKLSGSISSQYLTALLMAAPLALGDVEIEIIDKLISVPYVEMTLKLMERFGISVEHSSSWDRFFVRGGQKYKSPGKAFVEGDASSASYFLAGAAVTGGTITVEGCGTNSLQGDVKFAEVLEKMGAEVTWTENSVTVKGPPRSSSGRKHLRAIDVNMNKMPDVAMTLAVVALYADGPTAIRDVASWRVKETERMIAICTELRKLGATVEEGPDYCIITPPEKLNVTDIDTYDDHRMAMAFSLAACADVPVTINDPGCTRKTFPNYFDVLQQYSKH
Question: How did the Km [2] turn out when B1 was run?
Answer: 44 µM

B2: P. hybrida EPSPS variant glypR (Gly-Ala, Pro-Ser) (Petunia x hybrida; G173A/P178S) (protein)
chain: KPSEIVLQPIKEISGTVKLPGSKSLSNRILLLAALSEGTTVVDNLLSSDDIHYMLGALKTLGLHVEEDSANQRAVVEGCGGLFPVGKESKEEIQLFLGNAATAMRSLTAAVTVAGGNSRYVLDGVPRMRERPISDLVDGLKQLGAEVDCFLGTKCPPVRIVSKGGLPGGKVKLSGSISSQYLTALLMAAPLALGDVEIEIIDKLISVPYVEMTLKLMERFGISVEHSSSWDRFFVRGGQKYKSPGKAFVEGDASSASYFLAGAAVTGGTITVEGCGTNSLQGDVKFAEVLEKMGAEVTWTENSVTVKGPPRSSSGRKHLRAIDVNMNKMPDVAMTLAVVALYADGPTAIRDVASWRVKETERMIAICTELRKLGATVEEGPDYCIITPPEKLNVTDIDTYDDHRMAMAFSLAACADVPVTINDPGCTRKTFPNYFDVLQQYSKH
Question: For B2, which Km [2] is on record?
Answer: 340 µM

B3: P. hybrida EPSPS variant glypR (Gly-Ala) (Petunia x hybrida; G173A) (protein)
chain: KPSEIVLQPIKEISGTVKLPGSKSLSNRILLLAALSEGTTVVDNLLSSDDIHYMLGALKTLGLHVEEDSANQRAVVEGCGGLFPVGKESKEEIQLFLGNAATAMRPLTAAVTVAGGNSRYVLDGVPRMRERPISDLVDGLKQLGAEVDCFLGTKCPPVRIVSKGGLPGGKVKLSGSISSQYLTALLMAAPLALGDVEIEIIDKLISVPYVEMTLKLMERFGISVEHSSSWDRFFVRGGQKYKSPGKAFVEGDASSASYFLAGAAVTGGTITVEGCGTNSLQGDVKFAEVLEKMGAEVTWTENSVTVKGPPRSSSGRKHLRAIDVNMNKMPDVAMTLAVVALYADGPTAIRDVASWRVKETERMIAICTELRKLGATVEEGPDYCIITPPEKLNVTDIDTYDDHRMAMAFSLAACADVPVTINDPGCTRKTFPNYFDVLQQYSKH
Question: For B3, which Km [2] is on record?
Answer: 200 µM

B4: Z. mays glypS (wt) EPSPS (Zea mays, glyphosate sensitive, wild type) (Zea mays) (protein)
chain: AGAEEIVLQPIKEISGTVKLPGSKSLSNRILLLAALSEGTTVVDNLLNSEDVHYMLGALRTLGLSVEADKAAKRAVVVGCGGKFPVEDSKEEVQLFLGNAGTAMRPLTAAVTAAGGNATYVLDGVPRMRERPIGDLVVGLKQLGADVDCFLGTDCPPVRVNGIGGLPGGKVKLSGSISSQYLSALLMAAPLALGDVEIEIIDKLISIPYVEMTLRLMERFGVKAEHSDSWDRFYIKGGQKYKSPKNAYVEGDASSASYFLAGAAITGGTVTVEGCGTTSLQGDVKFAEVLEMMGAKVTWTETSVTVTGPPREPFGRKHLKAIDVNMNKMPDVAMTLAVVALFADGPTAIRDVASWRVKETERMVAIRTELTKLGASVEEGPDYCIITPPEKLNVTAIDTYDDHRMAMAFSLAACAEVPVTIRDPGCTRKTFPDYFDVLSTFVKN
Question: For B4, which Km [3] is on record?
Answer: 5 µM

B5: E. indica glypS EPSPS (Eleusine indica, naturally occurring glyphosate sensitive, wild type) (Eleusine indica) (protein)
chain: AGAEEVVLQPIKEISGVVKLPGSKSLSNRILLLSALAEGTTVVDNLLNSEDVHYMLGALKTLGLSVEADKAAKRAVVVGCGGKFPVEKDAKEEVQLFLGNAGTAMRPLTAAVTAAGGNATYVLDGVPRMRERPIGDLVVGLKQLGADVDCFLGTDCPPVRVKGIGGLPGGKVKLSGSISSQYLSALLMAAPLALGDVEIEIIDKLISIPYVEMTLRLMERFGVKAEHSDSWDRFYIKGGQKYKSPKNAYVEGDASSASYFLAGAAITGGTVTVEGCGTTSLQGDVKFAEVLEMMGAKVTWTETSVTVTGPQREPFGRKHLKAIDVNMNKMPDVAMTLAVVALFADGPTAIRDVASWRVKETERMVAIRTELTKLGASVEEGPDYCIITPPEKLNVTAIDTYDDHRMAMAFSLAACADVPVTIRDPGCTRKTFPDYFDVLSTFVKN
Question: B5 was tested. Which Km [4] did it give?
Answer: 5 µM

B6: E. indica glypR (Pro-Ser) EPSPS (Eleusine indica, naturally occurring glyphosate resistant, serine for proline at position 107, SEQ ID NO:7) (Eleusine indica) (protein)
chain: AGAEEVVLQPIKEISGVVKLPGSKSLSNRILLLSALAEGTTVVDNLLNSEDVHYMLGALKTLGLSVEADKAAKRAVVVGCGGKFPVEKDAKEEVQLFLGNAGTAMRSLTAAVTAAGGNATYVLDGVPRMRERPIGDLVVGLKQLGADVDCFLGTDCPPVRVKGIGGLPGGKVKLSGSISSQYLSALLMAAPLALGDVEIEIIDKLISIPYVEMTLRLMERFGVKAEHSDSWDRFYIKGGQKYKSPKNAYVEGDASSASYFLAGAAITGGTVTVEGCGTTSLQGDVKFAEVLEMMGAKVTWTETSVTVTGPQREPFGRKHLKAIDVNMNKMPDVAMTLAVVALFADGPTAIRDVASWRVKETERMVAIRTELTKLGASVEEGLDYCIITPPEKLNVTAIDTYDDHRMAMAFSLAACADVPVTIRDPGCTRKTFPDYFDVLSTFVKN
Question: For B6, which Km [4] is on record?
Answer: 7 µM
